Reference: patent US5837813

Key:
[1] = target: human fibronectin (human) (UniProt P02751); assay: solid-phase competition, 125I-14 kDa fragment on coated fibronectin
[2] = target: human fibronectin (human) (UniProt P02751); assay: solid-phase competition, 125I-fibronectin on coated fibronectin
[3] = target: human fibronectin (human) (UniProt P02751)

Question: For LISIQQYGHQEVTRFDFTTTSTSTPVTSNTV [polypeptide P3], which fold less potent than P1 [1] is on record?
Answer: The fold less potent than P1 was 100 fold.

Question: What about the IC50 [2] of the same binder?
Answer: Its IC50 is 200 to 300 µM.

Question: And the ^125 I-fibronectin bound to IMR-90 cells after one hour [3]?
Answer: The ^125 I-fibronectin bound to IMR-90 cells after one hour was 25%.
